# Reference: publication PMC11211491, “Design of a covalent protein-protein interaction inhibitor of SRPKs to suppress angiogenesis and invasion of cancer cells” (Communications Chemistry, 2024)
# aryl‑sulfonyl fluoride = aryl-sulfonyl fluoride group, a lysine-reactive covalent warhead for SuFEx reactions
# B1: DBS1-1 (peptide)
# peptide: Ac-RERARTRRK(aryl‑sulfonyl fluoride)RARTRERARTR-NH2
# Target: SRPK1ΔNS3 (UniProt Q96SB4)
binder,measurement,value
B1,"IC50 of inhibition of the phosphorylation of SRSF1 by SRPK1ΔNS3 (in vitro kinase assay, [32P]ATP); blocked pair SRPK1-SRSF1",640 nM
